Source: the supplement of paper PMC10065799, “High-throughput profiling of sequence recognition by tyrosine kinases and SH2 domains using bacterial peptide display” (eLife, 2023)

Each sequence was assayed against Hck (UniProt P08631) (assay: phosphorylation enrichment, bacterial display (enrichment ratio); higher = better substrate or ligand; peptides without Tyr show the background).
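Note: 11-residue human phosphosite peptides and single-mutation variants displayed on the E. coli surface, counted by deep sequencing, each peptide's frequency after selection divided by its frequency in the unselected input library; frequency after pTyr selection over input frequency; kinase dosed for 20-30% of maximal phosphorylation in three min.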

Sequence of Hck (P08631 whole entry, looked up): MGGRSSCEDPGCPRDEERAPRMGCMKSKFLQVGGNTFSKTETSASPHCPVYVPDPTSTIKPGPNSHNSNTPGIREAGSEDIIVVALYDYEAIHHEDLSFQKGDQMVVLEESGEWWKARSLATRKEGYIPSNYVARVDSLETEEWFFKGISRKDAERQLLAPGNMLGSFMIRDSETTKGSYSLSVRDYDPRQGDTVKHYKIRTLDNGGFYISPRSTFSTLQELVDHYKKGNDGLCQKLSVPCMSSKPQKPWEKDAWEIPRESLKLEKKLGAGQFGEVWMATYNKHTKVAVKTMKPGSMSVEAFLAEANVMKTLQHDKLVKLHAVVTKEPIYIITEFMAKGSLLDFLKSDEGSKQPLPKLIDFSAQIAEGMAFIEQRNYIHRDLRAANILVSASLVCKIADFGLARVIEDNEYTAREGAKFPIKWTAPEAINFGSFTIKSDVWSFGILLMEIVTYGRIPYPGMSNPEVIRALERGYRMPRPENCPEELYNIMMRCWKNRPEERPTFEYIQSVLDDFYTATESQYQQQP

Row | Sequence | phosphorylation enrichment
1 | QGLRLYRPHLP [BTK_Y617_A622P] | 0.522
2 | HFGCVYYGTLL [MET_Y1093_H1094Y] | 2.43
3 | KANEYYPVVII [ADAMTS18_Y765_L769I] | 0.738
4 | KDHPDYKFQPR [SOX10_Y171_YF] | 0.48
5 | MCDKEYFSVHN [MET_Y1234_Y1230C_YF] | 0.453
6 | HLVSEYQQFQD [TUBB3_Y422_D417H_YF] | 0.524
7 | VLTSKYCGGGG [HBA1_Y141_R142C] | 0.467
8 | MGSFNYLGFPR [SPTLC2_Y178_A182P_YF] | 0.403
9 | NFATLHLKIFH [PDE6B_Y219_Y219H_YF] | 0.492
10 | NNPAFYVLEGV [INPPL1_Y987_YF] | 0.485
11 | FSQQTYFRVSN [ABCD1_Y180_YF] | 0.749
12 | KPPFSYNALIR [FOXG1_Y186_M191R] | 0.53
13 | DPEATYTTSGG [EPHA2_Y772] | 0.591
14 | LYVDVYGPSVP [NUBPL_Y109_D105Y] | 2.85
15 | MKGDYYRSLAE [YWHAG_Y131_Y133S] | 0.427
16 | GRVLGYGTFGK [FLT4_Y853_A855T] | 0.417
17 | EKKQTYGSCRK [LACTB_Y473_R469K] | 0.391
18 | LRIAVYHEILI [CREBBP_Y1450_T1447I] | 2.74
19 | NKVQFYIPDMN [NCR1_Y84_K82Q] | 0.532
20 | KDGSGYISAAE [CALM1_Y100_N98S] | 0.444
21 | HKNNNYEPNLF [BRCA2_Y57] | 0.61
22 | KKYPDYIQIAM [SGMS2_Y59] | 0.581
23 | IYRASYVPFAA [RBM47_Y541_G538R] | 0.657
24 | PTDGVYVMPTV [MYO7A_Y1668_S1666G] | 6.35
25 | GGFNNYGFGND [HNRNPH3_Y159_YF] | 0.437
26 | ATAKGYEPDAS [OTC_Y223_P220A] | 0.483
27 | PMWHPYKVDVT [TP53TG5_Y255] | 0.5
28 | FPSLPYSPVSS [CAMKK2_Y128_C123Y_YF] | 0.59
29 | PPGRSYSPCDF [TNS1_Y793_Y796C_YF] | 0.639

These sequences were tested against Jak2 (UniProt O60674) in the same assay as above.
Sequence of Jak2 (O60674 whole entry, looked up): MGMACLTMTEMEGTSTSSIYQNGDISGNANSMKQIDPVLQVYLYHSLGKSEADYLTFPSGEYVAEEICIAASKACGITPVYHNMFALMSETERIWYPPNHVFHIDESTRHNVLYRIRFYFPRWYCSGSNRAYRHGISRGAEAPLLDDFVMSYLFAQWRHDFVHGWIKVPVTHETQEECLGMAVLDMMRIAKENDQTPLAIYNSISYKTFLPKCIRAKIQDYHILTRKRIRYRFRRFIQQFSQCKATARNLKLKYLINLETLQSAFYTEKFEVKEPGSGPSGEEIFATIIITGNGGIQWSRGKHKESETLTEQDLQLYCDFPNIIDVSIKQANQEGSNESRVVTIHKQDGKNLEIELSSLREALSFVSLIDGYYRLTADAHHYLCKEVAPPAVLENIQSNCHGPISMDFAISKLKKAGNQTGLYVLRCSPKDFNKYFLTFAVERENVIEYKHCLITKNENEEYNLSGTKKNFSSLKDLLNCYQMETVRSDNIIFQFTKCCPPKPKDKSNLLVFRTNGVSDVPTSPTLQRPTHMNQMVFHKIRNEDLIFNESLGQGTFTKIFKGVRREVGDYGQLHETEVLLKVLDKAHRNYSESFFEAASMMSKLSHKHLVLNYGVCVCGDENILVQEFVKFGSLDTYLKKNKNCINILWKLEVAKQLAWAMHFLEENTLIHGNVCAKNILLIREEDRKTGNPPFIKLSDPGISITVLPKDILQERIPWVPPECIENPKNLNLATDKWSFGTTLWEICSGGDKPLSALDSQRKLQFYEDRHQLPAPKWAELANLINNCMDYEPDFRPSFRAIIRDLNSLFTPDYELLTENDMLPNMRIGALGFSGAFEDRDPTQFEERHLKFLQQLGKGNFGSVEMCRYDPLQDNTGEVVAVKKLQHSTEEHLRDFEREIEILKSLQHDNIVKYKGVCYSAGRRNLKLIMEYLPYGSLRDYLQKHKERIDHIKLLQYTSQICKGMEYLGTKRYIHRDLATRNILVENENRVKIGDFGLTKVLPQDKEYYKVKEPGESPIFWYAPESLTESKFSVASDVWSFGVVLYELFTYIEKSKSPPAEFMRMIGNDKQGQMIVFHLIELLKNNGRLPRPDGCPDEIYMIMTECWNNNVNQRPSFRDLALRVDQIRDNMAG

Row | Sequence | phosphorylation enrichment
30 | QGLRLYRPHLP [BTK_Y617_A622P] | 0.967
31 | HFGCVYYGTLL [MET_Y1093_H1094Y] | 2.13
32 | KANEYYPVVII [ADAMTS18_Y765_L769I] | 3.18
33 | KDHPDYKFQPR [SOX10_Y171_YF] | 0.566
34 | MCDKEYFSVHN [MET_Y1234_Y1230C_YF] | 1.11
35 | HLVSEYQQFQD [TUBB3_Y422_D417H_YF] | 0.917
36 | VLTSKYCGGGG [HBA1_Y141_R142C] | 0.634
37 | MGSFNYLGFPR [SPTLC2_Y178_A182P_YF] | 1.68
38 | NFATLHLKIFH [PDE6B_Y219_Y219H_YF] | 1.24
39 | NNPAFYVLEGV [INPPL1_Y987_YF] | 0.87
40 | FSQQTYFRVSN [ABCD1_Y180_YF] | 3.23
41 | KPPFSYNALIR [FOXG1_Y186_M191R] | 0.618
42 | DPEATYTTSGG [EPHA2_Y772] | 1.09
43 | LYVDVYGPSVP [NUBPL_Y109_D105Y] | 0.977
44 | MKGDYYRSLAE [YWHAG_Y131_Y133S] | 1.14
45 | GRVLGYGTFGK [FLT4_Y853_A855T] | 0.617
46 | EKKQTYGSCRK [LACTB_Y473_R469K] | 0.484
47 | LRIAVYHEILI [CREBBP_Y1450_T1447I] | 4.19
48 | NKVQFYIPDMN [NCR1_Y84_K82Q] | 1.01
49 | KDGSGYISAAE [CALM1_Y100_N98S] | 0.6
50 | HKNNNYEPNLF [BRCA2_Y57] | 0.477
51 | KKYPDYIQIAM [SGMS2_Y59] | 1.46
52 | IYRASYVPFAA [RBM47_Y541_G538R] | 0.82
53 | PTDGVYVMPTV [MYO7A_Y1668_S1666G] | 1.3
54 | GGFNNYGFGND [HNRNPH3_Y159_YF] | 0.627
55 | ATAKGYEPDAS [OTC_Y223_P220A] | 0.684
56 | PMWHPYKVDVT [TP53TG5_Y255] | 0.643
57 | FPSLPYSPVSS [CAMKK2_Y128_C123Y_YF] | 0.526
58 | PPGRSYSPCDF [TNS1_Y793_Y796C_YF] | 0.679

What follows are sequences tested against MERTK (UniProt Q12866) in the same assay as above.
Sequence of MERTK (Q12866 whole entry, looked up): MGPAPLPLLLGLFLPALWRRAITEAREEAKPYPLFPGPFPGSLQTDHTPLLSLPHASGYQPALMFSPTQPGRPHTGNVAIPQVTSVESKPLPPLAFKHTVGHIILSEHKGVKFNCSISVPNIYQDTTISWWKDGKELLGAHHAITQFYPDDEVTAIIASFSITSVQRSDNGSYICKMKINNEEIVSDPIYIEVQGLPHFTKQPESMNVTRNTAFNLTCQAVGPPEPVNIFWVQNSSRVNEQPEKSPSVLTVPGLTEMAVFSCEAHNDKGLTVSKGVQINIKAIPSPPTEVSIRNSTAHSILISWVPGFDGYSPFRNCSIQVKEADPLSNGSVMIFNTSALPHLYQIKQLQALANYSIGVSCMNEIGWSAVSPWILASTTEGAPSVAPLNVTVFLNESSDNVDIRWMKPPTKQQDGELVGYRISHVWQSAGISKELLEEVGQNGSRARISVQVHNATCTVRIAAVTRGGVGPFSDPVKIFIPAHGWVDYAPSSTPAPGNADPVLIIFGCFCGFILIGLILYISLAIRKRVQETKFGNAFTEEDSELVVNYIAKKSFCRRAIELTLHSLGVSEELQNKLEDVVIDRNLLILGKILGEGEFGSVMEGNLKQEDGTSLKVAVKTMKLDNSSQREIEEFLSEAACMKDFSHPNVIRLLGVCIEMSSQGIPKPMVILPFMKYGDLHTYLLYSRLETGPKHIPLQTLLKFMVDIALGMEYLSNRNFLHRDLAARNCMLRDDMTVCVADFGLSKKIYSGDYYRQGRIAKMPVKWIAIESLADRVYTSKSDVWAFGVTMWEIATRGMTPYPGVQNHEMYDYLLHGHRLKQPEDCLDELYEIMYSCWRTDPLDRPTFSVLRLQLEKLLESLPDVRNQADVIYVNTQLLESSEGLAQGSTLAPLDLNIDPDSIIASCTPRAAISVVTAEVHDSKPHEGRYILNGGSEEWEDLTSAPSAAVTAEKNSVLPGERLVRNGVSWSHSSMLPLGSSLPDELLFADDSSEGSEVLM

Row | Sequence | phosphorylation enrichment
59 | QGLRLYRPHLP [BTK_Y617_A622P] | 0.512
60 | HFGCVYYGTLL [MET_Y1093_H1094Y] | 1.11
61 | KANEYYPVVII [ADAMTS18_Y765_L769I] | 0.81
62 | KDHPDYKFQPR [SOX10_Y171_YF] | 0.468
63 | MCDKEYFSVHN [MET_Y1234_Y1230C_YF] | 0.404
64 | HLVSEYQQFQD [TUBB3_Y422_D417H_YF] | 0.336
65 | VLTSKYCGGGG [HBA1_Y141_R142C] | 0.391
66 | MGSFNYLGFPR [SPTLC2_Y178_A182P_YF] | 0.518
67 | NFATLHLKIFH [PDE6B_Y219_Y219H_YF] | 0.56
68 | NNPAFYVLEGV [INPPL1_Y987_YF] | 0.554
69 | FSQQTYFRVSN [ABCD1_Y180_YF] | 0.41
70 | KPPFSYNALIR [FOXG1_Y186_M191R] | 0.477
71 | DPEATYTTSGG [EPHA2_Y772] | 0.418
72 | LYVDVYGPSVP [NUBPL_Y109_D105Y] | 2.27
73 | MKGDYYRSLAE [YWHAG_Y131_Y133S] | 0.44
74 | GRVLGYGTFGK [FLT4_Y853_A855T] | 0.369
75 | EKKQTYGSCRK [LACTB_Y473_R469K] | 0.366
76 | LRIAVYHEILI [CREBBP_Y1450_T1447I] | 1.62
77 | NKVQFYIPDMN [NCR1_Y84_K82Q] | 0.483
78 | KDGSGYISAAE [CALM1_Y100_N98S] | 0.464
79 | HKNNNYEPNLF [BRCA2_Y57] | 0.539
80 | KKYPDYIQIAM [SGMS2_Y59] | 0.435
81 | IYRASYVPFAA [RBM47_Y541_G538R] | 0.66
82 | PTDGVYVMPTV [MYO7A_Y1668_S1666G] | 11.7
83 | GGFNNYGFGND [HNRNPH3_Y159_YF] | 0.397
84 | ATAKGYEPDAS [OTC_Y223_P220A] | 0.416
85 | PMWHPYKVDVT [TP53TG5_Y255] | 0.398
86 | FPSLPYSPVSS [CAMKK2_Y128_C123Y_YF] | 0.489
87 | PPGRSYSPCDF [TNS1_Y793_Y796C_YF] | 0.676

Each sequence was assayed on c-Abl (mouse) in the same assay as above.

Row | Sequence | phosphorylation enrichment
88 | QGLRLYRPHLP [BTK_Y617_A622P] | 0.712
89 | HFGCVYYGTLL [MET_Y1093_H1094Y] | 1.82
90 | KANEYYPVVII [ADAMTS18_Y765_L769I] | 2.4
91 | KDHPDYKFQPR [SOX10_Y171_YF] | 0.573
92 | MCDKEYFSVHN [MET_Y1234_Y1230C_YF] | 0.586
93 | HLVSEYQQFQD [TUBB3_Y422_D417H_YF] | 0.559
94 | VLTSKYCGGGG [HBA1_Y141_R142C] | 0.747
95 | MGSFNYLGFPR [SPTLC2_Y178_A182P_YF] | 0.584
96 | NFATLHLKIFH [PDE6B_Y219_Y219H_YF] | 0.918
97 | NNPAFYVLEGV [INPPL1_Y987_YF] | 0.616
98 | FSQQTYFRVSN [ABCD1_Y180_YF] | 0.625
99 | KPPFSYNALIR [FOXG1_Y186_M191R] | 0.565
100 | DPEATYTTSGG [EPHA2_Y772] | 0.943
101 | LYVDVYGPSVP [NUBPL_Y109_D105Y] | 0.902
102 | MKGDYYRSLAE [YWHAG_Y131_Y133S] | 0.463
103 | GRVLGYGTFGK [FLT4_Y853_A855T] | 0.533
104 | EKKQTYGSCRK [LACTB_Y473_R469K] | 0.581
105 | LRIAVYHEILI [CREBBP_Y1450_T1447I] | 2.93
106 | NKVQFYIPDMN [NCR1_Y84_K82Q] | 0.744
107 | KDGSGYISAAE [CALM1_Y100_N98S] | 0.544
108 | HKNNNYEPNLF [BRCA2_Y57] | 0.563
109 | KKYPDYIQIAM [SGMS2_Y59] | 0.729
110 | IYRASYVPFAA [RBM47_Y541_G538R] | 7.02
111 | PTDGVYVMPTV [MYO7A_Y1668_S1666G] | 4.76
112 | GGFNNYGFGND [HNRNPH3_Y159_YF] | 0.548
113 | ATAKGYEPDAS [OTC_Y223_P220A] | 0.598
114 | PMWHPYKVDVT [TP53TG5_Y255] | 0.433
115 | FPSLPYSPVSS [CAMKK2_Y128_C123Y_YF] | 0.507
116 | PPGRSYSPCDF [TNS1_Y793_Y796C_YF] | 0.902
